Here are results for eight substances from paper PMC10984146.

In assay [1] the target is unclasped and untagged recombinant human integrin αVβ5 ectodomain (human) (UniProt P06756). Nature of the assay: fluorescence polarisation. In general terms: Fluorescence polarisation rises when a labelled molecule tumbles more slowly, as on binding a larger partner.
For assay [2], the target named is reconstituted αVβ5/Hsp90α complex (human) (UniProt P06756). The assay can be described thus: fluorescence polarisation.
For assay [3], the target named is clasped and tagged recombinant human integrin αVβ5 ectodomain (human) (UniProt P06756). Nature of the assay: BLI. For orientation: Biolayer interferometry detects binding as a change in optical thickness at a sensor tip.
Assay [4] deals with A488-irisin-His (UniProt Q8NAU1). The assay can be described thus: fluorescence polarisation.
The target is the same in assay [5]. Nature of the assay: fluorescence polarisation. This is another data set of the same source.
Assay [6] concerns the target A488-FN10 (human). The assay can be described thus: fluorescence polarisation.
Assay [7] has as its target A488-irisin-bac (UniProt Q8NAU1). Nature of the assay: fluorescence polarisation.
The target of assay [8] is A488-irisin-His (UniProt Q8NAU1). The assay can be described thus: MST.

Several values for one entry are separate records, joined by “and”; a condition that tells them apart may be missing. Equal entries are not always repeated. Where two headings read alike, the source gives them in different places.

For the substance “FN10 (human fibronectin 10th FNIII domain, untagged) (domain or fragment)”, the Kd in assay [1] is 239 nM.

As for “irisin-His (wild-type, glycosylated recombinant irisin from mammalian cells) (from UniProt Q8NAU1 1-191) (ligand)”, the Kd in assay [1] turned out to be 35 nM; in assay [2], 52 nM; in assay [3], 212 nM.

Consider “irisin-bac (non-glycosylated irisin produced in bacteria) (from UniProt Q8NAU1 1-260) (ligand)”, for which the Kd in assay [1] was 294 nM and 299 nM.

In the case of “reconstituted αVβ5/Hsp90α complex (from UniProt P06756 32-991; P18084 24-717; P07900 1-732)”, the Kd was 37 nM in assay [4] and 31 nM in assay [5].

Regarding “unclasped and untagged recombinant human integrin αVβ5 ectodomain (from UniProt P06756 32-991; P18084 24-717) (receptor)”, the Kd in assay [4] was 28 nM; in assay [6] it was 146 nM; in assay [7], 256 nM. In assay [8], this substance had a stoichiometry N of 1.

Turning to “unlabeled and untagged irisin (glycosylated, from mammalian cells) (from UniProt Q8NAU1 1-191) (ligand)”, the equilibrium dissociation constant (Kd) in assay [2] came to 50 nM.

The substance “αVβ5 ectodomain mutant E304R (β5) (from UniProt P06756 32-991; P18084 24-717) (receptor)” had a reduction of affinity for irisin compared to WT in assay [4] of 80%.

Consider “αVβ5 ectodomain mutant R218E (β5) (from UniProt P06756 32-991; P18084 24-717) (receptor)”, for which the reduction of affinity for irisin compared to WT in assay [4] is > 90%.

By Kd is commonly meant the concentration at which binding is half-saturated. Usually stoichiometry N stands for a count of units in the complex or per binding partner.
